In patent EP2292266A1 one finds FRET efficiency (E), FRET efficiency and quantification ratio (heavy/light peak area, pTyr peptide over Tyr peptide) data, which are given here for 1 substance.

Assay [1] deals with ErbB2 (human) (UniProt P04626). As to the kind of experiment: FRET acceptor photobleaching in fixed, HRG-treated SKBr3 cells (Alexa488 donor on Copine-III, Cy3 acceptor on ErbB2).
Assay [2] addresses ErbB2 (human) (UniProt P04626). As to the kind of experiment: FRET acceptor photobleaching.
The target of assay [3] is pTyr1248-containing peptide of ErbB2 (desthiobiotin-…-NH2, Tyr-phosphorylated form) (human). As to the kind of experiment: SILAC peptide affinity pull-down from T47D lysates, MRM mass spectrometry; reference is the non-phosphorylated Tyr1248 peptide.

Chain of Copine III (O75131 whole entry): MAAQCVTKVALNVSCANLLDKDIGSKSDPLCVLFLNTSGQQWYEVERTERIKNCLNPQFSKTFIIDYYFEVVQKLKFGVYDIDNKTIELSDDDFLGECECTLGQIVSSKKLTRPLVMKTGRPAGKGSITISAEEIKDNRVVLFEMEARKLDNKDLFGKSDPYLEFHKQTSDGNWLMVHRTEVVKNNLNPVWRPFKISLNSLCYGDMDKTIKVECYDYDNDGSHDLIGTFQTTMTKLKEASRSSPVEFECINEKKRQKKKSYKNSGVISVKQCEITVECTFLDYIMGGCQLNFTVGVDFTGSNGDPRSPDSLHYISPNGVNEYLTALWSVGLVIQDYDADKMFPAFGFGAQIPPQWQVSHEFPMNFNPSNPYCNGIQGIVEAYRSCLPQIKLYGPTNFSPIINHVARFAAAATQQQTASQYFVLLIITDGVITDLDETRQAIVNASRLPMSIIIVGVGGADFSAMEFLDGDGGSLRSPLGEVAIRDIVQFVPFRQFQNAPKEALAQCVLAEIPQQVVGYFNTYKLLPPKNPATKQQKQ

For the substance Copine III (from UniProt O75131 1-537), the FRET efficiency (E) in assay [1] stood at 8.3. The substance further returned an FRET efficiency in assay [2] of 8. For the same substance, the quantification ratio (heavy/light peak area, pTyr peptide over Tyr peptide) in assay [3] was 1.8.
